Laboratory results as given in US20220323583A1, “Pharmaceutical Formulations of Bi-Specific Diabodies and Use of the Same” (MacroGenics, Inc., priority 2019, published 2022).

Assays:
TF-1 = assay: Redirected killing of target cell line; assay type: cell-based
[1] = tested on: primary AML specimens (BMNC, PBMC); assay: Incubation of primary AML bone marrow samples with DART-A; assay type: cell-based, human
Description: Upregulation of granzyme B and perforin levels in both CD8 and CD4 T cells was observed.

[2] = biological target: T1, recombinant Interleukin 3 Receptor (rhIL3-R) (Homo sapiens, UniProt P26951); assay: CD123 binding ELISA (relative potency); conditions: Relative Potency vs DART-A reference standard, 1250 ng/mL dosing solution, Stabilizer 2
T1 construct: The soluble IL3R was coated on the surface of an ELISA plate
T1 sequence (P26951 19-305 limits assumed): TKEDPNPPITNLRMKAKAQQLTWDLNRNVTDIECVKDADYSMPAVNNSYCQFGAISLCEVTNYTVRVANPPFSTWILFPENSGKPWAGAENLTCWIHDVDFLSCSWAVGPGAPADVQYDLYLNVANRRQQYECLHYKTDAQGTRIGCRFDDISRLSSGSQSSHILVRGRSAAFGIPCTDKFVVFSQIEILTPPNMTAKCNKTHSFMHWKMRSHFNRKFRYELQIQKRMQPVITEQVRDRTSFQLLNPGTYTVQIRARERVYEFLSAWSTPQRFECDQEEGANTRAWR
Description: The soluble IL3R was coated on the surface of an ELISA plate. […] Quantification of bound probe antibody was achieved by addition of a colorimetric AP substrate (AP-Yellow 1 Component Substrate). Oxidation of AP-Yellow by AP yields a colored product that can be read at 405±10 nm. The assay was quantified by the intensity of color, measured using a spectrophotometer set to an optimal wavelength of 405±10 nm. Data were fitted to a four-parameter model with the following variable constraints: the maximum, minimum and slope of each dose response curve is set to be shared between all dose response curves on the plate; the EC50 was determined independently for each curve.

pH = assay type: physicochemical; conditions: for pH: normal saline IV bag with Stabilizer 2
[3] = Sub-visible particle count, light obscuration (HIAC); assay type: physicochemical; conditions: for Subvisible Particles by USP <788> ≥2 μm/mL / Subvisible Particles by USP <788> ≥10 μm/mL / Subvisible Particles by USP <788> ≥25 μm/mL: Stabilizer 2; for Particle Counts/mL ≥10 μm / Particle Counts/mL ≥25 μm: Study 1, dual-pump infusion
[4] = 10 ng/mL dosing solution, Post Infusion (Infusion Time = 48 Hrs)
[5] = 10 ng/mL dosing solution, Post Storage (T = 72 Hrs), room temperature
[6] = 10 ng/mL dosing solution, T = 0
[7] = 20 ng/mL dosing solution, Post Infusion (Infusion Time = 96 Hrs)
[8] = 20 ng/mL dosing solution, Post Storage (T =72 Hrs), room temperature
[9] = 20 ng/mL dosing solution, T = 0
[10] = 1250 ng/mL dosing solution, Post Infusion (Infusion Time = 48 Hrs)
[11] = 1250 ng/mL dosing solution, Post Storage (T = 72 Hrs), room temperature
[12] = 1250 ng/mL dosing solution, T = 0
[13] = High (5000 ng/mL), T = 24 hours
[14] = High (5000 ng/mL), T = 48 hours
[15] = High (5000 ng/mL), T = 72 hours

B1: DART-A: sequence-optimized CD123×CD3 bispecific diabody; chains SEQ ID NO:42 and SEQ ID NO:44 covalently bonded by a disulfide bond (protein)
chain 1: QAVVTQEPSLTVSPGGTVTLTCRSSTGAVTTSNYANWVQQKPGQAPRGLIGGTNKRAPWTPARFSGSLLGGKAALTITGAQAEDEADYYCALWYSNLWVFGGGTKLTVLGGGGSGGGGEVQLVQSGAELKKPGASVKVSCKASGYTFTDYYMKWVRQAPGQGLEWIGDIIPSNGATFYNQKFKGRVTITVDKSTSTAYMELSSLRSEDTAVYYCARSHLLRASWFAYWGQGTLVTVSSGGCGGGEVAALEKEVAALEKEVAALEKEVAALEK
chain 2: DFVMTQSPDSLAVSLGERVTMSCKSSQSLLNSGNQKNYLTWYQQKPGQPPKLLIYWASTRESGVPDRFSGSGSGTDFTLTISSLQAEDVAVYYCQNDYSYPYTFGQGTKLEIKGGGSGGGGEVQLVESGGGLVQPGGSLRLSCAASGFTFSTYAMNWVRQAPGKGLEWVGRIRSKYNNYATYYADSVKDRFTISRDDSKNSLYLQMNSLKTEDTAVYYCVRHGNFGNSYVSWFAYWGQGTLVTVSSGGCGGGKVAALKEKVAALKEKVAALKEKVAALKE
modifications: interchain disulfide bond; First Polypeptide Chain of DART-A; Second Polypeptide Chain of DART-A
For B1, the “Max % Killing” value (TF-1) was 46%, the leukemic cell population [1] was “depletion of the leukemic cell population over time” and the “residual T cells (CD4 and CD8)” value [1] was “expansion of the residual T cells”. For the same molecule, the “% Potency, CD123 binding” value ([2]; Post Infusion (Infusion Time = 48 Hrs)) was 123%, the “% Potency, CD123 binding” value ([2]; Post Storage (T = 72 Hrs), room temperature) was 140% and the “% Potency, CD123 binding” value ([2]; T = 0) was 146%. It also gave a pH (pH; [4]) of 8.1, a pH (pH; [5]) of 8.1 and a pH (pH; [6]) of 8.1. The pH (pH; [7]) was 7.9, the pH (pH; [8]) was 8.1 and the pH (pH; [9]) was 8.1. It also gave a pH (pH; [10]) of 8.0, a pH (pH; [11]) of 8.0 and a pH (pH; [12]) of 8.0. For the same molecule, the “changes in pH, visual appearance and osmolality post-infusion vs T=0” value (pH; Stabilizer 2 dosing solutions) was “no significant changes in pH, visual appearance, and osmolality”, the “Subvisible Particles by USP <788> ≥2 μm/mL” value [3, 4] was 140 mL⁻¹ and the “Subvisible Particles by USP <788> ≥10 μm/mL” value [3, 4] was 2 mL⁻¹. For the same molecule, the “Subvisible Particles by USP <788> ≥25 μm/mL” value [3, 4] was 1 mL⁻¹, the “Subvisible Particles by USP <788> ≥2 μm/mL” value [3, 5] was 192 mL⁻¹ and the “Subvisible Particles by USP <788> ≥10 μm/mL” value [3, 5] was 10 mL⁻¹. The “Subvisible Particles by USP <788> ≥25 μm/mL” value [3, 5] was 1 mL⁻¹, the “Subvisible Particles by USP <788> ≥2 μm/mL” value [3, 6] was 206 mL⁻¹ and the “Subvisible Particles by USP <788> ≥10 μm/mL” value [3, 6] was 7 mL⁻¹. For the same molecule, the “Subvisible Particles by USP <788> ≥25 μm/mL” value [3, 6] was 1 mL⁻¹, the “Subvisible Particles by USP <788> ≥2 μm/mL” value [3, 7] was 85 mL⁻¹ and the “Subvisible Particles by USP <788> ≥10 μm/mL” value [3, 7] was 9 mL⁻¹. The “Subvisible Particles by USP <788> ≥25 μm/mL” value [3, 7] was 3 mL⁻¹, the “Subvisible Particles by USP <788> ≥2 μm/mL” value [3, 8] was 412 mL⁻¹ and the “Subvisible Particles by USP <788> ≥10 μm/mL” value [3, 8] was 8 mL⁻¹. The “Subvisible Particles by USP <788> ≥25 μm/mL” value [3, 8] was 0 mL⁻¹, the “Subvisible Particles by USP <788> ≥2 μm/mL” value [3, 9] was 344 mL⁻¹ and the “Subvisible Particles by USP <788> ≥10 μm/mL” value [3, 9] was 8 mL⁻¹. For the same molecule, the “Subvisible Particles by USP <788> ≥25 μm/mL” value [3, 9] was 0 mL⁻¹, the “Subvisible Particles by USP <788> ≥2 μm/mL” value [3, 10] was 188 mL⁻¹ and the “Subvisible Particles by USP <788> ≥10 μm/mL” value [3, 10] was 4 mL⁻¹. For the same molecule, the “Subvisible Particles by USP <788> ≥25 μm/mL” value [3, 10] was 1 mL⁻¹, the “Subvisible Particles by USP <788> ≥2 μm/mL” value [3, 11] was 146 mL⁻¹ and the “Subvisible Particles by USP <788> ≥10 μm/mL” value [3, 11] was 7 mL⁻¹. The “Subvisible Particles by USP <788> ≥25 μm/mL” value [3, 11] was 1 mL⁻¹, the “Subvisible Particles by USP <788> ≥2 μm/mL” value [3, 12] was 664 mL⁻¹ and the “Subvisible Particles by USP <788> ≥10 μm/mL” value [3, 12] was 21 mL⁻¹. For the same molecule, the “Subvisible Particles by USP <788> ≥25 μm/mL” value [3, 12] was 1 mL⁻¹, the “subvisible particle counts ≥2 μm, ≥10 μm and ≥25 μm post-infusion vs T=0” value ([3]; Stabilizer 2 dosing solutions) was “did not increase” and the “Particle Counts/mL ≥10 μm” value ([3]; High (5000 ng/mL), T = 0) was 14 Counts/mL. The “Particle Counts/mL ≥25 μm” value ([3]; High (5000 ng/mL), T = 0) was 1 Counts/mL, the “Particle Counts/mL ≥10 μm” value [3, 13] was 2 Counts/mL and the “Particle Counts/mL ≥25 μm” value [3, 13] was 1 Counts/mL. The “Particle Counts/mL ≥10 μm” value [3, 14] was 0 Counts/mL, the “Particle Counts/mL ≥25 μm” value [3, 14] was 0 Counts/mL and the “Particle Counts/mL ≥10 μm” value [3, 15] was 0 Counts/mL. For the same molecule, the “Particle Counts/mL ≥25 μm” value [3, 15] was 0 Counts/mL, the “Particle Counts/mL ≥10 μm” value ([3]; Low (100 ng/mL), T = 0) was 5 Counts/mL and the “Particle Counts/mL ≥25 μm” value ([3]; Low (100 ng/mL), T = 0) was 0 Counts/mL. For the same molecule, the “Particle Counts/mL ≥10 μm” value ([3]; Low (100 ng/mL), T = 24 hours) was 4 Counts/mL, the “Particle Counts/mL ≥25 μm” value ([3]; Low (100 ng/mL), T = 24 hours) was 1 Counts/mL and the “Particle Counts/mL ≥10 μm” value ([3]; Low (100 ng/mL), T = 48 hours) was 7 Counts/mL. For the same molecule, the “Particle Counts/mL ≥25 μm” value ([3]; Low (100 ng/mL), T = 48 hours) was 0 Counts/mL, the “Particle Counts/mL ≥10 μm” value ([3]; Low (100 ng/mL), T = 72 hours) was 1 Counts/mL and the “Particle Counts/mL ≥25 μm” value ([3]; Low (100 ng/mL), T = 72 hours) was 0 Counts/mL.
